Data on two molecules can be found in patent US20080131373A1 (VAN ANDEL RESEARCH INSTITUTE, published 2008).

For test [1], the target named is human epidermal growth factor receptor (EGFR) on the surface of A431 cells (human, UniProt P00533 25-1210). Nature of the test: cell-based or functional assay.
For test [2], the target named is T1, full length EGFR protein from A431 cell lysate (affinity purified, or native in the lysate) (human, UniProt P00533 25-1210).
T1 construct: mature; 'mature' is chosen as the nearest form; also called intact EGFR protein; native EGFR
In words: non-competitive ELISA on immobilized EGFR at 2 and 5 µg/ml coating. How it is done: The hyperbolic curves were plotted by Graphpad Prism (FIG. 7). […] The affinity was calculated as an association constant (Kaff) as follows: […]
The affinity of the Fab was calculated by non-competitive ELISA as described elsewhere (Raghava G P, et al. J Immunoassay 15:115-28 (1994)). The EGFR proteins were immobilized to an ELISA plate at two different concentrations: 2 μg/ml and 5 μg/ml. After the plate was blocked by 5% milk-PBS, the serially diluted Fab was added to each well. The concentration of Fab and the absorbance optical at 450 nm were plotted in two hyperbolic curves and each Kd was calculated by Graphpad Prism Demo Version.

B1: Fab-paclitaxel conjugate (anti-EGFR Fab conjugated to paclitaxel) (Fab, V domains shown)
VH: EVQLVESGGGLVQPGRSLRLSCAASGFTFDDYAMHWVRQAPGKGLEWVAVIWYDGSNKYYADSVKGRFTISRDNSKNTLYLQMNSLRAEDTAVYYCARTLYSNIDYWGQGTLVTVSS
VL: ALTQPPSVSVAPGKTARITCGGNNIGSKSVHWYQQKPGQAPVLVIYYDSDRPSGIPERFSGSNSGNTATLTISRVEAGDEADYYCQVWDSSSDHPVFGGGTKLTVL
modifications: paclitaxel conjugated to the Fab; chain, site and linker not stated
Consider B1, for which, in test [1], the “IC50 of A431 cell proliferation” value was found to be 0.02 nM.

B2: anti-EGFR Fab fragment (produced by E. coli deposited as ATCC PTA-7830) (Fab, V domains shown)
VH: EVQLVESGGGLVQPGRSLRLSCAASGFTFDDYAMHWVRQAPGKGLEWVAVIWYDGSNKYYADSVKGRFTISRDNSKNTLYLQMNSLRAEDTAVYYCARTLYSNIDYWGQGTLVTVSS
VL: ALTQPPSVSVAPGKTARITCGGNNIGSKSVHWYQQKPGQAPVLVIYYDSDRPSGIPERFSGSNSGNTATLTISRVEAGDEADYYCQVWDSSSDHPVFGGGTKLTVL
notes: Human Fab from a naive phage display library (phagemid pComb3X), expressed in E. coli Top 10 F' and purified from the periplasm; also called the Fab of the present invention
B2: in test [2], the Ka was found to be 3.25e+07 M⁻¹ and the affinity, expressed as Kd, was 30.7 nM.
